The values below come from patent US20100055108A1.

In one experiment the target is human IL-17RC (human) (UniProt Q8NAC3). Description: cell-based or functional assay.
In the next experiment the target is human IL-17RA (human) (UniProt Q96F46). Description: cell-based or functional assay.

Chain of UniProt Q8NAC3 (Q8NAC3 21-791): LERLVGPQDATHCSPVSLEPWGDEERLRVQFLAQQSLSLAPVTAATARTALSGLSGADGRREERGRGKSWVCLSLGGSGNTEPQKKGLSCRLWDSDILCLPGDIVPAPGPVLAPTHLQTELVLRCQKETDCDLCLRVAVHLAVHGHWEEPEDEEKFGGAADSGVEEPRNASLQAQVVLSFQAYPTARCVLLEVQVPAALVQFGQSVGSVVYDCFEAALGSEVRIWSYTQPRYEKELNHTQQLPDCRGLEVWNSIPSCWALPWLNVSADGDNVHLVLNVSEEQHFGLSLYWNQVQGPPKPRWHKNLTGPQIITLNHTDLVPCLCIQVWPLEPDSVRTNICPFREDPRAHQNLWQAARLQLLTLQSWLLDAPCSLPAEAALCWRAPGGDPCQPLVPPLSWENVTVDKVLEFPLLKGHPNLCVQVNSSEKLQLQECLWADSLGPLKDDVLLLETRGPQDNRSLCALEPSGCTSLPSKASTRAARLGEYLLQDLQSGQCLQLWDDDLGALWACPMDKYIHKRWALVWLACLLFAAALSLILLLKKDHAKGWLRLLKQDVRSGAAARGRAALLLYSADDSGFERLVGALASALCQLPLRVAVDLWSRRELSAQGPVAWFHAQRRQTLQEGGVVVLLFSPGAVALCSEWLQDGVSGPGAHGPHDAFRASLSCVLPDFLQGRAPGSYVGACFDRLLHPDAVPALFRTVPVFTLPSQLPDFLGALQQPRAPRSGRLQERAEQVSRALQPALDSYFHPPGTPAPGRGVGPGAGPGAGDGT

Turning to “recombinant human IL-17A (from UniProt Q16552 20-155) (ligand)”, in the experiment with human IL-17RC (human), the inhibition of activation of c-Jun (c-Jun mRNA, quantitative RT-PCR) after IL-17RC iRNA knockdown in AGS cells was 82% and the inhibition of activation of p65 (DNA-binding activity, TransAM NFkB kit) after IL-17RC iRNA knockdown in AGS cells amounted to 89%. For the same substance, in the experiment with human IL-17RA (human), the inhibition of IL-17A-induced activation of c-Jun (c-Jun mRNA, quantitative RT-PCR) after IL-17RA iRNA knockdown in AGS cells came out at 80% and the inhibition of IL-17A-induced activation of p65 (DNA-binding activity, TransAM NFkB kit) after IL-17RA iRNA knockdown in AGS cells came out at 97%.
